Series [1] deals with MS2 coat protein. In words: apparent KD of MS2 coat protein, switch OFF state (with FMN for OFF switches, without FMN for ON switches); designed switch direction (-1 OFF switch, 1 ON switch): -1; higher = weaker reporter binding. Conditions: FMN input: 0 or 200 uM; Eterna round: R93 (includes R88 designs). In outline:
(§1)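 Designed RNA switches were transcribed on-chip from Illumina sequencing clusters. SNAP-549-labelled MS2 coat protein was titrated onto them in twofold steps from 0.7 or 1.5 nM to 3 µM in 100 mM Tris-HCl pH 7.5, 80 mM KCl, 4 mM MgCl2, either without or with constant ligand. Apparent KD reflects the per-design median of normalised cluster binding-curve fits.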

The test system of series [2] is MS2 coat protein. In words: apparent KD of MS2 coat protein, switch ON state; designed switch direction (-1 OFF switch, 1 ON switch): -1; higher = weaker reporter binding. Conditions: FMN input: 0 or 200 uM; Eterna round: R93 (includes R88 designs). The method, boiled down:
as §1

These results are taken from the supplement of paper PMC9170038.

“AACUGACAUGAGGAUCACCCAUGUCAGGAUAUGCUUCAUAAAAAAAAAAAAAAAUGAUGCAGAAGGGAUAUGGG [Design 33 :P Sub-opt 9]”: the “apparent KD of MS2 coat protein” value in series [1] is 34.3 nM; in series [2], 18 nM.
In the same order, the values of “AAAAAGCAAGGAUAUACAUGAGGAUCACCCAUGUGAAAAAAAACAAUAAGAAGAACAAGUAGAAGGUGCAAAAA [Mod of Ex3 Tesla 1 - Jieux - Exclusion 3]” are 28.2 nM and 19.5 nM.
In the same order, the values of “AGUUGGCGAGGAUAUACAUGAGGAUCACCCAUGUGAAAGAAAAAAGUGAGAAAGAAAAGUAGAAGGCGCUGACA [73%, Moding Norbert Elias, 2]” are 181 nM and 54.7 nM.
In the case of “AAAAAGAGAGGAUAUACAUGAGGAUCACCCAUGUGAAAGACGAAAAAAAGUCAAAAAAGUAGAAGGCUCAAAAA [65%, Moding Exclusion3-cac2, 15]”, the “apparent KD of MS2 coat protein” value was found to be 25.4 nM in series [1] and 23.8 nM in series [2].
As to “AAAAAGUUAGGAUAUACAGAUAAAAAAACGAAAAAAAAUCUGUAGAAGGAACAUGAGGAUCACCCAUGUAAAAA [Ex 4 May 2]”, the “apparent KD of MS2 coat protein” value is 16.7 nM in series [1] and 25.6 nM in series [2].
Turning to “AACAGUACAGGAUAUACAUGAGGAUCACCCAUGUCACACAAAUAAAACAAAAAUAAAAGUAGAAGGGUACUGGA [Ruby 40]”, the results for the “apparent KD of MS2 coat protein” value in series [1] and in series [2] were 25.9 nM and 24.9 nM, respectively.
The corresponding values for “AACAGUACAGGAUAUACAUGAGGAUCACCCAUGUGAAAAUUAAGUGGAGAACCACAAAGUAGAAGGGUACUGAA [Mat - Exclusion 3 - Eli mod - D57]” are 179 nM and 27.6 nM.
In the case of “UGCAGGUGAGGAUAUGCGGGCGAGCUAACAUAAGCAUCGAAGCAGAAGGCACAUGAGGAUCACCCAUGUAGUCC [Ex4_Neo]”, the “apparent KD of MS2 coat protein” value in series [1] came out at 27.2 nM; in series [2] it was 21 nM.
With “UGCUAGUCAGGAUAUACGAACAUGUCAAAAGACGUGAAGGGACAUGAGGAUCACCCAUGUAGAAGGGACUAGCA [salish99-Ex2-18]”, the “apparent KD of MS2 coat protein” value was determined as 121 nM in series [1] and 37.5 nM in series [2].
In the same order, the values of “ACCUAGUCAGGAUAUACAAACAUGUCAAAAGACGUGAAAAAACAUGAGGAUCACCCAUGUAGAAGGGACUAGGA [Mat - Exclusion 2 - JL mod - D22]” are 19.7 nM and 20.5 nM.
Take “AAGAAACAUGAGGAUCACCCAUGUGAGGAUAUGUAAAAGAAAAGAAAAGAAAGAAGAAACAGAAGGCACAAAGG [Neferkare VII]”: the “apparent KD of MS2 coat protein” value in series [1] worked out at 48 nM; in series [2], 43.1 nM.
Take “AAAAAGCGAGGAUAUACGAAGCUAAGACAAAUAAGCAAGGGACAUGAGGAUCACCCAUGUAGAAGGCGCAAAAA [Exclusion 2-01... 60% 2]”: the figures for the “apparent KD of MS2 coat protein” value in series [1] and in series [2] were 58.6 nM and 29.4 nM, respectively.
In the same order, the values of “AACAAGUGAGGAUAUCUGGAUAGGAAAAAGAAAACCUAUCCAGAGAAGGCACAUGAGGAUCACCCAUGUAAAAA [JL cataway mod 6]” are 34.6 nM and 32.7 nM.
In the case of “AAAAAGUCAGGAUAUACGGGAGUGCGAAAGCACAAAAAAAAACAUGAGGAUCACCCAUGUAGAAGGGACAAGAA [Married to this design, 61% 5]”, the “apparent KD of MS2 coat protein” value in series [1] came out at 34.5 nM; in series [2], 46.1 nM.
In the same order, the values of “AACAUGUCAGGAUAUGCAACAGGAGACUGACACGCGAGUGAGCAGAAGGGACAUGAGGAUCACCCAUGUUCAAA [Meechl Ex4 3]” are 17.1 nM and 21.1 nM.
In the same order, the values of “GAAAAGCAAGGAUAUACAUGAGGAUCACCCAUGUAACCUGAAAGCAUGAUCGGUGACAGUAGAAGGUGCGAAAU [Tixegerice]” are 56.9 nM and 22.3 nM.
The corresponding values for “GCUGGCCUAGGAUAUACAUGAGGAUCACCCAUGUGAGAGAAAAAAGUGAGAAAGAAAAGUAGAAGGAGGUUAGG [salish99-ex3-115]” are 57.2 nM and 50.2 nM.
For the sequence “AAAAGGCGAGGAUAUACAUGAGGAUCACCCAUGUAAGUAAGCCUGGCUGAAACUAAAUGUAGAAGGCGCAAAAA [Mat - Exclusion 3 - Neo mod - D73]”, the “apparent KD of MS2 coat protein” value was 56.2 nM in series [1] and 18.2 nM in series [2].
In the same order, the values of “GAAAAACAUGAGGAUCACCCAUGUAAGGAUAUGCUGAAAAACACGGAAAAAACGUGCAGCAGAAGGUACAAAAG [Mat - Exclusion 1 - Eli mod - D91]” are 131 nM and 16.7 nM.
The corresponding values for “AAGAACACAGGAUAUACAUGAAAGAAAGAAAAGAAAAGAAAACAUGAGGAUCACCCAUGUAGAAGGGUGUAGAA [EteRNA is fun!]” are 532 nM and 454 nM.
The corresponding values for “AAAUGACAUGAGGAUCACCCAUGUCAGGAUAUGACUUGAAAAUAAAAUAAAAAACAUGUCAGAAGGGACAUGGG [Design 50: Sub-opt F]” are 15.5 nM and 20.3 nM.
Turning to “GAAAACUGAGGAUAUACUUUGGGAAAAGAAAAGAUGAUGUUACAUGAGGAUCACCCAUGUAGAAGGCAGAAAAA [Default title]”, the “apparent KD of MS2 coat protein” value in series [1] was found to be 39.4 nM; in series [2], 26.4 nM.
Take “CAGUACUGAGGAUAUACAUGAGGAUCACCCAUGUAAAAAAGCUACGAAAGUAGCAAAUGUAGAAGGCAGUACUG [Ex3: 804]”: the “apparent KD of MS2 coat protein” value worked out at 22.8 nM in series [1] and 15.5 nM in series [2].
Take “AAAAAGUCAGGAUAUACAAAAGUGCGAAAGCACAAAAGGAAACAUGAGGAUCACCCAUGUAGAAGGGACAAGAA [Married to this design]”: the results for the “apparent KD of MS2 coat protein” value in series [1] and in series [2] were 24.2 nM and 42.3 nM, respectively.
As to “AAAGGACAAGGAUAUACAUGAGGAUCACCCAUGUGUAAAACAUAAUAAAAUAACUUAUGUAGAAGGUGUCCAAA [Mat - Exclusion 3 - Eli mod - D100]”, the “apparent KD of MS2 coat protein” value in series [1] is 173 nM; in series [2], 30.5 nM.
In the case of “AAGAAGUGAGGAUAUCGAAGACUGUCGAAAAGACAGUCGAACGAGAAGGCACAUGAGGAUCACCCAUGUGGAAA [Marsurpial 65% 5]”, the “apparent KD of MS2 coat protein” value amounted to 36.3 nM in series [1] and 30.7 nM in series [2].
In the same order, the values of “AAGAACUGAGGAUAUACAUAAUAAAAGAAAAGAAAGAAAGAACAUGAGGAUCACCCAUGUAGAAGGCGGAAGAA [Khaneferre Sobekhotep IV]” are 24.5 nM and 32.7 nM.
In the same order, the values of “AAGGGACAUGAGGAUCACCCAUGUCAGGAUAUGAUGCGAAUAAAGAAAGAAUAAAGCAUCAGAAGGGACACCAA [Mat - Exclusion 1 - Eli mod - D64]” are 44.6 nM and 23 nM.
For “AAAGGACAUGAGGAUCACCCAUGUGAGGAUAUGACGUAAAGAAAGAAAGAAGAAAUCGUCAGAAGGCACACCUA [Mat - Exclusion 1 - Eli mod - D69]”, the “apparent KD of MS2 coat protein” value in series [1] was determined as 36.5 nM; in series [2], 35.4 nM.
In the same order, the values of “AAAACACAUGAGGAUCACCCAUGUGAGGAUAUGCUAUGGAAAAUAAAAAUAAAACAUAGCAGAAGGCACAAGGA [Denovo 17]” are 50 nM and 28 nM.
With “AAGAAGUUAGGAUAUACAAGAAAGAAAGAAAAGAAAAGAAAACAUGAGGAUCACCCAUGUAGAAGGAACUAGAA [EteRNA is fun!]”, the “apparent KD of MS2 coat protein” value in series [1] was 19.6 nM; in series [2], 26.8 nM.
The corresponding values for “GAAAGUGGAGGAUAUACAUGAGGAUCACCCAUGUGUAAAAAUAAAAACACAAAAGAAAGUAGAAGGCCACAAAG [Mat - Exclusion 3 - Mayanna mod - D116]” are 49.2 nM and 22.9 nM.
The corresponding values for “AGGUGGUCAGGAUAUGCGUGAAGAAUAAAACAAAUAACAACGCAGAAGGGACAUGAGGAUCACCCAUGUCACCA [May 52]” are 16.6 nM and 20.7 nM.
In the same order, the values of “AGCUAGUCAGGAUAUACGAACAGGUCAAAAGACGUGAAGGGACAUGAGGAUCACCCAUGUAGAAGGGACUAGCA [Mat - Exclusion 2 - JL mod - D23]” are 116 nM and 39.6 nM.
On to “AAAAAGCGAGGAUAUACAUGAGGAUCACCCAUGUGAGAGAAAAAAAGGAGAAAAAAAAGUAGAAGGCGCAAAAA [Abraham Harold Maslow]”, for which the “apparent KD of MS2 coat protein” value was determined as 68.3 nM in series [1] and 63.8 nM in series [2].
In the same order, the values of “AUCGAUCGAGGAUAUACAUGAGGAUCACCCAUGUAAAGCAGAAGAAAGGCCUCAGGAUGUAGAAGGCGACGCAA [JR_Exc003_Sub404]” are 41.9 nM and 17.1 nM.
Consider “CUCAUGUAAGGAUAUAUAUGAAAUGAAGUGAAAGAAAAGAAAUAGAAGGUACAUGAGGAUCACCCAUGUUAGAA [EteRNA is fun!]”, for which the figures for the “apparent KD of MS2 coat protein” value in series [1] and in series [2] were 38.7 nM and 59.2 nM, respectively.
In the same order, the values of “AGUCUGAGAGGAUAUACAUAGGAAAAAAAAGUCAGAUCCCUACAUGAGGAUCACCCAUGUAGAAGGCUCUGACA [Ex2 Design 148: Sub-opt 12]” are 12.6 nM and 13.9 nM.
As to “AUUAAACAUGAGGAUCACCCAUGUGAGGAUAUGCAAAAAAAAUUAUAUUAAAAAAAAAGCAGAAGGCACAUAUA [coft]”, the figures for the “apparent KD of MS2 coat protein” value in series [1] and in series [2] were 62.3 nM and 36.3 nM, respectively.
